Legend:
[1] = test system: CAS SH3 Y12E; experiment: Phage ELISA with CAS SH3 variants; type: binding, mouse; conditions: immobilized 5 µg of CAS SH3 variant per well, three independent experiments
Method: The relative binding affinities of individual phage clones to GST-CAS SH3 were assessed by ELISA according to the manufacturer’s protocol (Ph.D.™ −12 Phage Display Peptide Library Kit, New England Biolabs). Briefly, a dilution series of phage stocks was prepared in TBS with 0.5% Tween 20 (TBST, 10^15−2 × 10^6 pfu/ml), and phages were scored for their ability to bind immobilized GST-CAS SH3 domain (100 µl of 50 µg/ml per well) in 96-well plate. Bound phages were detected with anti-M13 antibody conjugated to HRP and quantified in a colorimetric assay (ABTS at 415 nm, Invitrogen) using Varioskan Flash (Thermo Scientific). Relative binding affinities (the affinity of the phage clone with the highest affinity was arbitrarily set to 1) were evaluated based on the number of phages required to bind the immobilized GST-fused CAS SH3 domain at 50% saturation. Curves were fitted with the standard sigmoidal function in Sigmaplot. The clones with highest affinities were selected for further analyses (e.g., binding to immobilized 5 µg of CAS SH3 variants per well).

[2] = test system: Src kinase; experiment: Co-immunoprecipitation of FAK and Vinculin with CAS after Src inhibition; type: cell-based, mouse; conditions: MEFs SrcF treated with 5 µM Saracatinib for 3 h, Vinculin immunoblot
Method: Immunoprecipitations from lysates of MEFs or MEFs transformed with SrcF were performed similarly as described above. To immunoprecipitate CAS proteins, protein-A sepharose (GE-Healthcare) and anti-CAS antibody (BD Transduction Laboratories) were used. […] After transferring proteins onto nitrocellulose membrane and blocking, the membranes were incubated with anti CAS, Src, FAK, Vinculin, CAS Tyr12, CAS pTyr165, Src pTyr418 or actin antibody.

[3] = test system: GST-fused CAS SH3 domain; experiment: Competitive displacement phage ELISA (EC50); type: binding, mouse
Method: The EC50 for phage clone 1 ([…], highest affinity) was determined using competitive displacement of the phage bound (5.5·10^10 pfu) to immobilized GST-fused CAS SH3 domain (100 µl of 20 µg/ml per well to yield the best specificity/sensitivity ratio) by serial additions of free GST-fused CAS SH3 domain in TBST (1 µg/ml–800 µg/ml) as previously described. The amount of bound phages was assessed with anti-M13 antibody conjugated to HRP and quantified in a colorimetric assay. Displacement curves were fitted to standard sigmoidal function and EC50 was calculated in Sigmaplot version 11 software using a four-parameter logistic equation. Statistical significance (*p < 0.05, **p < 0.01, ***p < 0.001) was determined on log-transformed data by one-way ANOVA followed by Tukey’s post-hoc test.

[4] = target: T1, CAS SH3 (as used for ITC) (mouse, UniProt Q61140 3-65); experiment: ITC; 660 µM peptide injected into 60 µM CAS SH3; 25 °C; PBS pH 7.5, 0.05% 2-mercaptoethanol; conditions: both partners purified
T1 construct: Crk-associated substrate (CAS), mouse, SH3 domain; probably the same protein as m2; source: E. coli BL21 (DE3), purified
T1 sequence (looked up): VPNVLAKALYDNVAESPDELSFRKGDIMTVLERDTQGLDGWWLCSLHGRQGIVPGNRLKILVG

[5] = target: T2, CAS SH3 domain (GST tag removed, for NMR) (mouse, UniProt Q61140 3-65); experiment: NMR solution structure; chimeras: peptide fused through a Gly/Ser-rich linker to the C-terminus of the CAS SH3 domain; 450 µM; 25 °C; 25 mM sodium phosphate pH 7.5, 100 mM NaCl, 1 mM TCEP; conditions: both partners purified
T2 construct: Crk-associated substrate (CAS), mouse, SH3 domain; Two additional residues remained at the N-terminus after thrombin cleavage; In the two chimeras this domain carried, on the same chain, the spacer SGGSGSG and the peptide m17 or m18 at its C-terminus; also called free CAS SH3 domain; source: E. coli BL21 (DE3), 15N/13C-labelled, purified (glutathione agarose, thrombin cleavage, size exclusion); …
T2 sequence (looked up): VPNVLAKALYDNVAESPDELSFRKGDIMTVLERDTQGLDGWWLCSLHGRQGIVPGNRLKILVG

[6] = target: T3, GST-fused CAS SH3 domain Y12F (mouse, UniProt Q61140 3-65, Y12F); experiment: ELISA; phage ELISA: GST-CAS SH3 domain or its variants immobilised in 96-well plate (100 µl of 50 µg/ml; 5 µg per well), dilution series of phage stocks in TBS with 0.5% Tween 20, anti-M13-HRP; relative affinities from phage number at 50% saturation; conditions: one partner purified
T3 construct: Crk-associated substrate (CAS), mouse, SH3 domain with Y12F; also called CAS SH3 Y12F mutant; source: E. coli BL21 (DE3), pGEX-2TK, purified (glutathione agarose); not shown: GST, N-terminal, kept
T3 sequence (looked up): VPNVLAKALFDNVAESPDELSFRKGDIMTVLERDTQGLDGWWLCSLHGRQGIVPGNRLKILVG

[7] = target: T4, phage-displayed peptide clone 1 (FHAPPSKPPLPK); experiment: ELISA; competitive displacement of phage clone 1 (5.5·10^10 pfu) bound to immobilised GST-CAS SH3 (100 µl of 20 µg/ml per well) by free GST-CAS SH3 in TBST (1-800 µg/ml); anti-M13-HRP; conditions: one partner purified
T4 construct: 12-residue peptide selected from a degenerate library; also called phage clone 1; source: M13 phage stock (Ph.D.-12 Phage Display Peptide Library, New England Biolabs), selected by panning
T4 peptide: FHAPPSKPPLPK

Q: For TMTPPPKPPRLI [clone 10], which “effect of Y12E mutation on ligand binding” value [1] is on record?
A: The value was “complete disruption of ligand binding”.

Q: CN1CCN(CCOc2cc(OC3CCOCC3)c3c(Nc4c(Cl)ccc5c4OCO5)ncnc3c2)CC1 [Saracatinib] was tested. Which “binding of CAS to Vinculin” value [2] did it give?
A: Its value is “restored the binding of CAS to Vinculin to a similar level as in MEFs”.

Q: FHAPPSKPPLPK [clone 1] was tested. Which “fold higher affinity than reported for CAS SH3 with FAK-derived peptide” value ([3]; EC50 of clone 1 compared with previously reported value) did it give?
A: The value was ~6 fold.

Q: What about the EC50 ([3]; displacement of bound phage (5.5·10^10 pfu) from immobilized GST-CAS SH3 (100 µl of 20 µg/ml per well) by free GST-fused CAS SH3 (1-800 µg/ml) in TBST, anti-M13-HRP, colorimetric, seven independent experiments, read-out: EC50 for clone 1 binding) of the same molecule?
A: Its EC50 is 0.363 µM.

Q: With AHTPPPKPTRPP [clone 16] as the molecule, how does the “effect of Y12E mutation on ligand binding” value [1] read?
A: Its value is “complete disruption of ligand binding”.

B1: synthetic octapeptide APPKPPLP (binding site of CAS on Vinculin) (peptide)
peptide: APPKPPLP
notes: also called Vinculin core peptide (859-866); source: synthetic peptide
Q: Which Kd [4] does the source give for B1 here?
A: Its Kd is 15.7 µM.

Q: What about the “stoichiometry N” value [4] of the same molecule?
A: The value was 1.

Q: For PPSKPPRP (source: synthetic peptide) [synthetic octapeptide PPSKPPRP], which Kd [4] is on record?
A: Its Kd is 15.3 µM.

Q: What about the “stoichiometry N” value [4] of the same molecule?
A: Its value is 1.

Q: With PPSKPPLP (source: synthetic peptide) [synthetic octapeptide PPSKPPLP] as the molecule, how does the Kd [4] read?
A: The Kd was 46.6 µM.

Q: And the “stoichiometry N” value [4]?
A: Its value is 1.

Q: For PPPKPPRL (source: synthetic peptide) [synthetic octapeptide PPPKPPRL], which Kd [4] is on record?
A: Its Kd is 5.29 µM.

Q: What about the “stoichiometry N” value [4] of the same molecule?
A: Its value is 1.

B2: PTP-PEST-derived peptide, residues 327-343 (peptide part of the CAS-PTP-PEST chimera) (peptide, UniProt P35831 327-343, looked up)
peptide: EKQDSPPPKPPRTRSCL
notes: PTP-PEST, mouse, residues 327-343; Stood on one chain with the CAS SH3 domain: SH3 domain, spacer SGGSGSG, peptide; also called PTP-PEST peptide; PTP-PEST extended peptide; source: E. coli BL21 (DE3), as the C-terminal part of the CAS SH3 chimera, purified
Q: Does B2 bind [5]?
A: Result: binds

B3: Vinculin-derived peptide, residues 854-870 (peptide part of the CAS-Vinculin chimera) (peptide, UniProt Q64727 854-870, looked up)
peptide: LTDELAPPKPPLPEGEV
notes: Vinculin, mouse, residues 854-870; Stood on one chain with the CAS SH3 domain: SH3 domain, spacer SGGSGSG, peptide; also called Vinculin peptide; Vinculin extended peptide; source: E. coli BL21 (DE3), as the C-terminal part of the CAS SH3 chimera, purified
Q: Does B3 bind [5]?
A: Result: binds

B4: phage-displayed peptide clone 10 (TMTPPPKPPRLI) (peptide)
peptide: TMTPPPKPPRLI
notes: 12-residue peptide selected from a degenerate library; also called phage clone 10; source: M13 phage stock (Ph.D.-12 Phage Display Peptide Library, New England Biolabs), selected by panning
Q: With B4 as the molecule, how does the “fold decrease in affinity against CAS WT” value [6] read?
A: The value was 2 fold.

B5: phage-displayed peptide clone 16 (AHTPPPKPTRPP) (peptide)
peptide: AHTPPPKPTRPP
notes: 12-residue peptide selected from a degenerate library; also called phage clone 16; source: M13 phage stock (Ph.D.-12 Phage Display Peptide Library, New England Biolabs), selected by panning
Q: Which “fold decrease in affinity against CAS WT” value [6] does the source give for B5 here?
A: Its value is 37 fold.

B6: GST-fused CAS SH3 domain (domain or fragment, mouse, UniProt Q61140 3-65, looked up)
chain: VPNVLAKALYDNVAESPDELSFRKGDIMTVLERDTQGLDGWWLCSLHGRQGIVPGNRLKILVG
notes: Crk-associated substrate (CAS), mouse, SH3 domain; also called GST-CAS SH3; GST-SH3; source: E. coli BL21 (DE3), pGEX-2TK, purified (glutathione agarose); not shown: GST, N-terminal, kept
Q: For B6, which EC50 [7] is on record?
A: The EC50 was 0.363 µM.

Source: PMC5556061 (Scientific Reports, 2017)
